Measured values taken from PMC3042951 (The journal of physical chemistry. B, 2010).

Target: the molecule itself
Assay: cross-linking

B1: native human LysRS (70–584) T285C (enzyme)
chain: not shown
  stoichiometry N: 2
